Laboratory results from patent publication US20230143582A1.

Biological target: Wnt receptors on the cell surface of the HEK293 TCF9-SEAP reporter cell line
Assay: cell-based or functional assay

ED50 in the HEK293 TCF9-Secreted Alkaline Phosphatase (SEAP) Wnt-responsive reporter assay, lot DLGC02: 0.221 µg/mL
ED50 in the HEK293 TCF9-Secreted Alkaline Phosphatase (SEAP) Wnt-responsive reporter assay, lot RSK51: 0.145 µg/mL
ED50 in the HEK293 TCF9-Secreted Alkaline Phosphatase (SEAP) Wnt-responsive reporter assay, lot RSK69: 0.191 µg/mL
Substance: recombinant human Wnt3a protein (from UniProt P56704 19-352) (ligand)
